{"source": "paper PMC2995167", "about": "(The Journal of Cell Biology, 2010)", "proteins": {"B1": {"name": "NcadEC-Fc (Fc fusion)", "chain": "DWVIPPVNVLENSRKQFPEELVKIQSDKDKSNTLRYSVTGPGADQNPTGLFIIDPISGLLSVTKPLDREHIPNFHLRAHAVDINGNQMENPIDIIINVIDMNDNRPEFTHQIWNGTVDEGAKPGTFVMTVTSQDKDDPNTANGMLRYKILSQTPESPSSNMFTINNKTGKIITVAAGLDREKVPQYTLIIQATDMEGNPTYGLSNTATAVIRLLDVNDNAPEFTRETFHGEVPENRVNVIVTNLTVTDKDEPGTPAWNAVYRIISGDPTGRFSIPTDPVTNEGLVTVVKPVDFEMNRSFMLTVVADNEVPLASGIHRTRQSTATVSIRVIDVNESPNFDPNPKQIKLEEGLPQWSMLTTFTAHDPDRYMQQTISYSKLYDPANWLEIDPNNGRISTIAVLDRESPYVKNNLYNATFMASDNGVPRASGTGTLQIYLLDINDNAPRVFPQEAEVCERPEPNAINITAVDGDLNPNAGPYAFELPNRPSDIRRNWTLTRISGDHAQLSLKISYLESGIYELPISITDSGNLPMSNTTYLRIKVCQCDHHGDCVDMERIMAAGLGTGA"}}, "molecular_target": "the molecule itself", "assay": "bead aggregation assay", "data": [{"protein": "B1", "values": [{"measurement": "binding result", "value": "binds"}]}]}
